From patent US6870033 come the findings set out here.

Where two headings read alike, the source gives them in different places.

The target in experiment [1] is T1, recombinant human IL-8, (ser-IL-8)72 (human, UniProt P10145 28-99).
T1 construct: mature; radio-iodinated when used as tracer; also called human wild type IL-8; wt IL-8
T1 sequence (looked up): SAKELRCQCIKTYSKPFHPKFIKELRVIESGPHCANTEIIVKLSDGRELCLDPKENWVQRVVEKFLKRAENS
Kind of experiment: inhibition of 125I-IL-8 binding to human neutrophils.

Experiment [2] concerns the target T1, recombinant human IL-8, (ser-IL-8)72. The description is as above. The source holds these as a separate data set.
The target in a further experiment is T2, rhesus IL-8 (rhesus, UniProt P67813 23-101, limits assumed).
T2 sequence (looked up): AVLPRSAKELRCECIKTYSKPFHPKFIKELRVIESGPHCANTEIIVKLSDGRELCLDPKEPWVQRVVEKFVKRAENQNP
In words: cell-based or functional assay.

The target of experiment [3] is T1, recombinant human IL-8, (ser-IL-8)72. Kind of experiment: cell-based or functional assay.

B1: humanized 6G425 F(ab)-1 (Fab, V domains shown)
VH: EVQLVESGGGLVQPGGSLRLSCAASGYSFSSHYMHWVRQAPGKGLEWVGYIDPSNGETTYNQKFKGRFTISRDNSKNTLYLQMNSLRAEDTAVYYCARGDYRYNGDWFFDVWGQGTLVTVSS
VL: DIQMTQSPSSLSASVGDRVTITCRSSQSLVHGIGNTYLHWYQQKPGKAPKLLIYKVSNRFSGVPSRFSGSGSGTDFTLTISSLQPEDFATYYCSQSTHVPLTFGQGTKVEIKR
notes: Fab with human kappa subgroup I light chain and human IgG1 subgroup III heavy chain (vector pEMX1); also called version 1; VI
For the molecule B1, the IC50 in experiment [1] is 40 nM; in experiment [2], 63 nM. Also, in experiment [1], the “fold reduction in binding affinity (against the chimeric F(ab) of Table 4)” value worked out at 5.5 fold.

B2: humanized 6G425 F(ab)-2 (Fab, V domains shown)
VH: EVQLVESGGGLVQPGGSLRLSCAASGYSFSSHYMHWVRQAPGKGLEWVGYIDPSNGETTYNQKFKGRATISRDNSKNTLYLQMNSLRAEDTAVYYCARGDYRYNGDWFFDVWGQGTLVTVSS
VL: DIQMTQSPSSLSASVGDRVTITCRSSQSLVHGIGNTYLHWYQQKPGKAPKLLIYKVSNRFSGVPSRFSGSGSGTDFTLTISSLQPEDFATYYCSQSTHVPLTFGQGTKVEIKR
notes: Template F(ab)-1; Fab constant parts as F(ab)-1; also called version 2
As to B2, the “fold decrease in IL-8 binding (against F(ab)-1)” value in experiment [1] was below 2 fold. For the same molecule, the IC50 in experiment [2] was determined as 106 nM.

B3: humanized 6G425 F(ab)-3 (Fab, V domains shown)
VH: EVQLVESGGGLVQPGGSLRLSCAASGYSFSSHYMHWVRQAPGKGLEWVGYIDPSNGETTYNQKFKGRFTISVDNSKNTLYLQMNSLRAEDTAVYYCARGDYRYNGDWFFDVWGQGTLVTVSS
VL: DIQMTQSPSSLSASVGDRVTITCRSSQSLVHGIGNTYLHWYQQKPGKAPKLLIYKVSNRFSGVPSRFSGSGSGTDFTLTISSLQPEDFATYYCSQSTHVPLTFGQGTKVEIKR
notes: Template F(ab)-1; Fab constant parts as F(ab)-1; also called version 3
Consider B3, for which the “fold decrease in IL-8 binding (against F(ab)-1)” value in experiment [1] is below 2 fold. In experiment [2], the IC50 amounted to 79.8 nM.

B4: humanized 6G425 F(ab)-7 (Fab, V domains shown)
VH: EVQLVESGGGLVQPGGSLRLSCAASGYSFSSHYMHWVRQAPGKGLEWVGYIDPSNGETTYNQKFKGRFTLSRDNSKNTAYVQMNSLRAEDTAVYYCARGDYRYNGDWFFDVWGQGTLVTVSS
VL: DIQMTQSPSSLSASVGDRVTITCRSSQSLVHGIGNTYLHWYQQKPGKAPKLLIYKVSNRFSGVPSRFSGSGSGTDFTLTISSLQPEDFATYYCSQSTHVPLTFGQGTKVEIKR
notes: Template F(ab)-6; Fab constant parts as F(ab)-1; also called version 16
Regarding B4, the half-maximal inhibitory concentration (IC50) in experiment [2] was 38.4 nM.

B5: humanized 6G425 F(ab)-8 (6G4.2.5V19) (Fab, V domains shown)
VH: EVQLVESGGGLVQPGGSLRLSCAASGYSFSSHYMHWVKQAPGKGLEWVGYIDPSNGETTYNQKFKGRFTLSRDNSKNTAYLQMNSLRAEDTAVYYCARGDYRYNGDWFFDVWGQGTLVTVSS
VL: DIQMTQSPSSLSASVGDRVTITCRSSQSLVHGIGNTYLHWYQQKPGKAPKLLIYKVSNRFSGVPSRFSGSGSGTDFTLTISSLQPEDFATYYCSQSTHVPLTFGQGTKVEIKR
Consider B5, for which the “IC50, neutrophil chemotaxis” value in the experiment with rhesus IL-8 is 10 nM; in experiment [3], 0.12 nM.
